Legend:
[1] = target: T1, human Tie2 (hTie2), as immobilised in the Octet assay of Example 1.4 (human, UniProt Q02763 349-738, limits assumed); assay: BLI (Octet), hTie2 immobilised on AR2G sensor, antibody as analyte, 1:1 global fit
T1 construct: The protein used was probably a soluble recombinant form, possibly hTie2-Ig3-FNIII(1-3)
Procedure: (§1) The affinity of mouse monoclonal antibody against hTie2 was measured using Octet® system (ForteBio) where Black 96-well plates (96 well F-type black plates, Greiner) were used. […] After the hydration, hTie2 was diluted in 10 mM sodium acetate, pH 6.0 buffer at a concentration of 10 μg/ml, fixed on AR2G biosensor, and blocked with 1M ethanolamine. The mouse monoclonal anti-Tie2 antibodies were diluted to 50, 25, 12.5, 6.25, 3.125, and 0 nM with 1× kinetic buffer, and subjected to association for 300 seconds and dissociation for 900 seconds.

[2] = target: T2, recombinant human Tie2 Ig3-FNIII(1-3) domains (human, UniProt Q02763 349-738); assay: BLI (Octet), antibody immobilised on AR2G sensor, recombinant hTie2 as analyte, 1:1 global fit
T2 construct: also called hTie2-Ig3-FNIII(1-3)
Procedure: as §1, with “of humanized anti-Tie2” for “of mouse monoclonal”, “hydration, humanized anti-Tie2 antibody” for “hydration, hTie2”, “The recombinant hTie2 was” for “The mouse monoclonal anti-Tie2 antibodies were”, “300 sec” for “300 seconds”, “900 sec.” for “900 seconds.”

[3] = target: T2, recombinant human Tie2 Ig3-FNIII(1-3) …; assay: stated in the HDX-MS sample preparation; how it was measured is not given; HDX-MS sample preparation; hTie2-Ig3-FNIII(1-3) fragment in deuterium labeling buffer; assay not given

T2 sequence (Q02763 349-738 limits assumed): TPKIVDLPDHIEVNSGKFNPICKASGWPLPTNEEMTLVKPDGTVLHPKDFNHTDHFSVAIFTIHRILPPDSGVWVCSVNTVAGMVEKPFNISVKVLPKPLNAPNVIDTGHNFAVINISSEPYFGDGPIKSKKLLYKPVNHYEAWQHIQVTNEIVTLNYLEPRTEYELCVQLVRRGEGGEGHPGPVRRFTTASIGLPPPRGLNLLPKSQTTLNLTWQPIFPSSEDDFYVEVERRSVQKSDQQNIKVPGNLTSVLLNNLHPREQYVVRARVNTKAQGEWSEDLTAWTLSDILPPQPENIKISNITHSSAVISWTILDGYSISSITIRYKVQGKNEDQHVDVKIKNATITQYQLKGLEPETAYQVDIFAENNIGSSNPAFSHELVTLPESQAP
T1 sequence (Q02763 349-738 limits assumed): as above

Binder	Kd [1] [nM]	koff [1] [s⁻¹]	kon [1] [M⁻¹ s⁻¹]	Kd [2] [nM]	koff [2] [s⁻¹]	kon [2] [M⁻¹ s⁻¹]	Kd [3] [nM]
mouse anti-Tie2 antibody 4A4 (antibody, V domains shown) VH: QVQLQQPGAELVRPGASVKLSCKASGYSFTSYWMNWVKQRPGQGLEWIGMIHPSDSETRLNQKFKDKATLTVDKSSSTAYMQLSSPTSEDSAVYYCARGYYFDYWGQGTTLTVSS VL: DIQMTQSPSSLSASLGERVSLTCRASQDIGISLNWLQQEPDGTIKRLIYATSSLDSGVPKRFTGSRSGSDYSLTISSLESEDFVDYYCLQYVSSPWTFGGGTKLEIK	0.105	5.53e-05	525000				
humanized anti-Tie2 antibody 3H7H11G4 (antibody, V domains shown) VH: QVQLVQSGAEVKKPGASVKVSCKASGYTFTSYWMNWVRQAPGQGLEWMGMIHPSDSETRLNQKFMDRVTMTRDTSTSTVYMELSSLRSEDTAVYYCARGLYGNSWGQGTLVTVSS VL: DIQMTQSPSSLSASVGDRVTITCRASQDIGISLNWYQQKPGKAPKRLIYATSSLDSGVPSRFSGSGSGTEFTLTISSLQPEDFATYYCLQYASSPYTFGQGTKVEIK				7.47	0.000467	62600	
humanized anti-Tie2 antibody 3H7H12G4 (antibody, V domains shown) VH: QVQLVQSGAEVKKPGASVKVSCKASGYTFTSYWMNWVRQAPGQGLEWMGMIHPSDSETRLNQKFMDRVTMTRDTSTSTVYMELSSLRSEDTAVYYCARGLYGNSWGQGTLVTVSS VL: DIQMTQSPSSLSASVGDRVTITCRASQDIGISLNWLQQEPGKAPKRLIYATSSLDSGVPKRFSGSGSGTEFTLTISSLQPEDFATYYCLQYASSPYTFGQGTKVEIK				96.5	0.000999	10400	
humanized anti-Tie2 antibody 3H7H21G4 (antibody, V domains shown) VH: QVQLVQSGAEVKKPGASVKVSCKASGYTFTSYWMNWVRQRPGQGLEWIGMIHPSDSETRLNQKFMDRVTMTRDTSTSTVYMELSSLRSEDTAVYYCARGLYGNSWGQGTLVTVSS VL: DIQMTQSPSSLSASVGDRVTITCRASQDIGISLNWYQQKPGKAPKRLIYATSSLDSGVPSRFSGSGSGTEFTLTISSLQPEDFATYYCLQYASSPYTFGQGTKVEIK				6.59	0.000517	78500	

Second part, the binder after the results:

Kd [1] [nM]	koff [1] [s⁻¹]	kon [1] [M⁻¹ s⁻¹]	Kd [2] [nM]	koff [2] [s⁻¹]	kon [2] [M⁻¹ s⁻¹]	Kd [3] [nM]	Binder
0.215	0.000327	1.52e+06					mouse anti-Tie2 antibody 11C4 (antibody, V domains shown) VH: QVQLQQPGADLVRPGASVTLSCKASGYSFTSYWMNWVKQRPGQGLEWIGMIHPSDSETRLNQKFKDKATLTVDKSSSTAYMQLRSPTSEDSAVYYCAGLTIYFDYWGQGTTLTVSS VL: DIQMTQSPSSLSASLGERVSLTCRASQDIGISLNWLQQEPDGTIKRLIYATSSLDSGVPKRFSGSRSGSDYSLTISSLESEDFVDYYCLQYASSPYTFGGGTKLEIK
< 0.001	< 1e-07	444000					mouse anti-Tie2 antibody 3B2 (antibody, V domains shown) VH: QVQLQQPGAELVRPGASVKLSCKASGYSFTSYWMNWVKQRPGQGLEWIGMIHPSDSETRLNQKFKDKATLTVDKSSSTAYLQLSSPTSEDSAVYYCARGNYFDCWGQGTTLTVSS VL: DIQMTQSPSSLSASLGERVSLTCRASQDIGISLNWLQQEPDGTIKRLIYATSILDSGVPKRFSGSRSGSDYSLTISSLESEDFVDYYCLQYASSPWTFGGGTKLEIK
0.251	9.12e-05	363000					mouse anti-Tie2 antibody 3E12 (antibody, V domains shown) VH: QVQLQQPGADLVRPGASVKLSCKASGYSFTSYWMNWVKQRPGQGLEWIGMIHPSDSETRLNQKFKDKATLTVDKSSSTAYMQLSSPTSEDSAVYYCAKGYYFGYWGQGTTLTVSS VL: DIQMTQSPSSLSASLGERVSLTCRASQDIGISLNWLQQEPDGTIKRLIYATSNLDSGVPKRFSGSRSGSDYSLTISSLESEDFVDYYCLQYASSPPTFGGGTKLEIK
0.0556	2.13e-05	384000	0.0269	1.05e-05	558000	25	mouse anti-Tie2 antibody 3H7 (antibody, V domains shown) VH: QVQLQQPGAELVRPGASVKLSCKASGYSFTSYWMNWVKQRPGQGLEWIGMIHPSDSETRLNQKFMDKATLTVDKSSSTAYMQLSSPTSEDSAVYYCARGLYGNSWGQGTLVTVSA VL: DIQMTQSPSSLSASLGERVSLTCRASQDIGISLNWLQQEPDGTIKRLIYATSSLDSGVPKRFSGSRSGSDYSLTISSLESEDFVDYYCLQYASSPYTFGGGTKLEIK
			39.7	0.000656	16500		humanized anti-Tie2 antibody 3H7H22G4 (antibody, V domains shown) VH: QVQLVQSGAEVKKPGASVKVSCKASGYTFTSYWMNWVRQRPGQGLEWIGMIHPSDSETRLNQKFMDRVTMTRDTSTSTVYMELSSLRSEDTAVYYCARGLYGNSWGQGTLVTVSS VL: DIQMTQSPSSLSASVGDRVTITCRASQDIGISLNWLQQEPGKAPKRLIYATSSLDSGVPKRFSGSGSGTEFTLTISSLQPEDFATYYCLQYASSPYTFGQGTKVEIK
